This assay has as its target ferroportin (human (endogenous in HEK 293)) (UniProt Q9NP59).
Sequence of UniProt Q9NP59 (Q9NP59 whole entry): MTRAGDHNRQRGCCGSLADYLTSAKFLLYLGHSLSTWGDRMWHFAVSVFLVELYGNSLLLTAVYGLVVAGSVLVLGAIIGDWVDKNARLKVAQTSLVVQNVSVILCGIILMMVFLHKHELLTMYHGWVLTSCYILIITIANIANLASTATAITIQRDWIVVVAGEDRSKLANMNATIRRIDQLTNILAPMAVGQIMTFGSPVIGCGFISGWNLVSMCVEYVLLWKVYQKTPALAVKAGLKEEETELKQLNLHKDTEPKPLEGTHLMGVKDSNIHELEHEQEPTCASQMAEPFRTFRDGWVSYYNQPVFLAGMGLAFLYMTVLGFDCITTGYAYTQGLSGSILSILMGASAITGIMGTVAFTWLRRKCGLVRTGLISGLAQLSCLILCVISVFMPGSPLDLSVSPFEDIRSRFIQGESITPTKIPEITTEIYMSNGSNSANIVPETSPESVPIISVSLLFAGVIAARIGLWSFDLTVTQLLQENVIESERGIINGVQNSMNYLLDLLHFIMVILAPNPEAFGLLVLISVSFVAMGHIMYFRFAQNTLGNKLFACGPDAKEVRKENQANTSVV

Take hepcidin (peptide): the membrane Fpn of HEK 293 cells with 500 nM hepcidin for 5 to 60 minutes (membrane protein isolation, immunoblot), decrease compared to holo-Tf treatment was 70%.

With “holo (iron bound)-transferrin (from UniProt P02787 20-698) (natural protein)”, the membrane Fpn of HEK 293 cells with 0.25 μM holo-Tf for 5 to 60 minutes (membrane protein isolation, immunoblot), decrease compared to 0 minutes worked out at 20%.

The record behind these values is PMC9882672.
